Experimental data as given in US11965039B2, “Compstatin analogues and their medical uses” (priority 2018, dated 2024).
Starred links: 1 amine or outer side, 2 acyl side, 3 side chain; linkers in the order of their positions; H or OH if unused. Positions of bridges follow the written chain, without caps; N, C: chain ends. Non-standard residues stand in square brackets, D forms with d. Groups on a side chain read outwards from the residue. *: point of attachment. X1 = K(γGlu-G-γGlu-17-carboxy-heptadecanoyl), O=C(O)CCCCCCCCCCCCCCCCC(=O)N[C@@H](CCC(=O)NCC(=O)N[C@@H](CCC(=O)NCCCC[C@H](N[*:1])C(=O)[*:2])C(=O)O)C(=O)O; Trp(1-Me) = Cn1cc(C[C@H](N)C(=O)O)c2ccccc21; C18 diacid = O=C(O)CCCCCCCCCCCCCCCCC(=O)*; γGlu = O=C(O)[C@H](CCC(=O)[*:2])N[*:1]; AEEA = NCCOCCOCC(=O)O; Sar = CNCC(=O)O

Tests used:
[1] = molecular target: T1, Human C3 (Complement tech cat #A113c) (human, UniProt P01024 23-1663); assay: cell-based or functional assay
[2] = molecular target: T1, Human C3 (Complement tech cat #A113c); assay: SPR (Biacore T200), human C3 immobilised, peptide injected, 1:1 fit
Description: Surface plasmon resonance (SPR) was used to characterize peptides with respect to their binding affinity (Kd) for C3. Human C3 (Complement tech cat #A113c) was immobilised on individual flow cells of CM5 sensor chips (GE Healthcare) using standard amine coupling to a density of approximately 3000 resonance units (RU) in a buffer consisting of 10 mM phosphate pH 7.4, 150 mM NaCl, 0.05% Tween20.
For interaction experiments a multi-cycle experiment approach was used and performed using a BiacoreT200™ instrument (GE Healthcare) at 25° C. Peptides were injected in increasing concentration series (6-8 different concentrations) for 60-120 sat a flow rate of 30 µL/min in a buffer consisting of 10 mM Tris buffer at pH 7.4, with 150 mM NaCl and 0.05% Tween20. This was followed by a dissociation period for up to 10 min. The C3 surface was regenerated between runs by a 45 s injection of 3 M MgCl_2.

T1 sequence (P01024 23-1663 limits assumed): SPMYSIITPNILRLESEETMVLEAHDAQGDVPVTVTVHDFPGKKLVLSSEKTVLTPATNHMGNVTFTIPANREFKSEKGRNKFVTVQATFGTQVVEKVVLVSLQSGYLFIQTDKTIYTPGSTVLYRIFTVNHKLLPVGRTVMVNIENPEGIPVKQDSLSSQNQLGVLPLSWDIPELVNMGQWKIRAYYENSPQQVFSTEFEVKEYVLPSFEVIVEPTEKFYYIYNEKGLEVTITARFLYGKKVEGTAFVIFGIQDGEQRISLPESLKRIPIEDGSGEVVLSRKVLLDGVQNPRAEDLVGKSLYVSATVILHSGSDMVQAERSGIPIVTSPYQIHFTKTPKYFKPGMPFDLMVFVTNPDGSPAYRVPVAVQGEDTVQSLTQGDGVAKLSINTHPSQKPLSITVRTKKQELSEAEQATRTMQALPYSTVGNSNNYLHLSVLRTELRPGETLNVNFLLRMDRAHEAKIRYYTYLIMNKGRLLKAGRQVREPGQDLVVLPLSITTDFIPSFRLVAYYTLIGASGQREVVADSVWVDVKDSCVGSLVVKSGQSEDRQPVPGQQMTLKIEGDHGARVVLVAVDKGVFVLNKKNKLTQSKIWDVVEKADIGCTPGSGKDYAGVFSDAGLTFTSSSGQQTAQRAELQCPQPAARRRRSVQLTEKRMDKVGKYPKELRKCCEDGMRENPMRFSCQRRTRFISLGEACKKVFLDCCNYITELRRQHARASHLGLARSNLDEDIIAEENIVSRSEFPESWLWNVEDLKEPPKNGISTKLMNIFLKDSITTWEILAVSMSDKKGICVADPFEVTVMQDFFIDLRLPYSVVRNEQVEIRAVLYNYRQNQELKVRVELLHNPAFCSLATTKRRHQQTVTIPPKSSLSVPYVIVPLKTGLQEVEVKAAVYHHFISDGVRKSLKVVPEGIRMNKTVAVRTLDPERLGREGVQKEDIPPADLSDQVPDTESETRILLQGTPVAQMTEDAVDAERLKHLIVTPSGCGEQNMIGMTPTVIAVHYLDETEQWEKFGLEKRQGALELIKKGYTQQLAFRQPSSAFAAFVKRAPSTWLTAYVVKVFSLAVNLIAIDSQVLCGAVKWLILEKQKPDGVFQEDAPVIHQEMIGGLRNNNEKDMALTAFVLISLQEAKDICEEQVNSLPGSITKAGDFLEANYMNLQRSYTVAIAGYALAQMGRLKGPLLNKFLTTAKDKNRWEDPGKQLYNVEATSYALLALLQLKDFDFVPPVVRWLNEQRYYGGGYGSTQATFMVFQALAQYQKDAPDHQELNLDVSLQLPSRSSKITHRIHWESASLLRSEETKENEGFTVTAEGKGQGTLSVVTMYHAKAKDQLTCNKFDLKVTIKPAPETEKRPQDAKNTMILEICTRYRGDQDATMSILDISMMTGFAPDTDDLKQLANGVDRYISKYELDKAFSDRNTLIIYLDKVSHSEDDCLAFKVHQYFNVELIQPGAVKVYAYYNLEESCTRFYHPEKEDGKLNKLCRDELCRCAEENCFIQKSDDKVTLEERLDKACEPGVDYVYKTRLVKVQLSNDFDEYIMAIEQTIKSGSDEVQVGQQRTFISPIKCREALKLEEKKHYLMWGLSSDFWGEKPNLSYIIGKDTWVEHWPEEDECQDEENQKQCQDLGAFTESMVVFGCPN

Row | Binder | inhibition of hemolysis IC50 [1] | Kd [2]
1 | Ac-SEFCI[Trp(1-Me)]QDWGEHRC[Sar]EGE-{AEEA-AEEA-K(γGlu-Gly-γGlu-15-carboxy-pentadecanoyl)-NH2} (disulfide 4-14) [Compound 127] | < 100 nM | 8.5 nM
2 | Ac-SEFCI[Trp(1-Me)]QDWGEHRC[Sar]EGE[AEEA]ES-{X1-NH2} (disulfide 4-14; SMILES CC[C@H](C)[C@@H]1NC(=O)[C@@H](NC(=O)[C@H](Cc2ccccc2)NC(=O)[C@H](CCC(=O)O)NC(=O)[C@H](CO)NC(C)=O)CSSC[C@@H](C(=O)N(C)CC(=O)N[C@@H](CCC(=O)O)C(=O)NCC(=O)N[C@@H](CCC(=O)O)C(=O)NCCOCCOCC(=O)N[C@@H](CCC(=O)O)C(=O)N[C@@H](CO)C(=O)N[C@@H](CCCCNC(=O)CC[C@H](NC(=O)CNC(=O)CC[C@H](NC(=O)CCCCCCCCCCCCCCCCC(=O)O)C(=O)O)C(=O)O)C(N)=O)NC(=O)[C@H](CCCNC(=N)N)NC(=O)[C@H](Cc2c[nH]cn2)NC(=O)[C@H](CCC(=O)O)NC(=O)CNC(=O)[C@H](Cc2c[nH]c3ccccc23)NC(=O)[C@H](CC(=O)O)NC(=O)[C@H](CCC(N)=O)NC(=O)[C@H](Cc2cn(C)c3ccccc23)NC1=O) [Compound 140] | < 100 nM | 7.6 nM
3 | Ac-SEFCI[Trp(1-Me)]QDWGEHRC[Sar]EGESESK([γGlu-Gly-γGlu-C18 diacid])-NH2 (disulfide 4-14; SMILES CC[C@H](C)[C@@H]1NC(=O)[C@@H](NC(=O)[C@H](Cc2ccccc2)NC(=O)[C@H](CCC(=O)O)NC(=O)[C@H](CO)NC(C)=O)CSSC[C@@H](C(=O)N(C)CC(=O)N[C@@H](CCC(=O)O)C(=O)NCC(=O)N[C@@H](CCC(=O)O)C(=O)N[C@@H](CO)C(=O)N[C@@H](CCC(=O)O)C(=O)N[C@@H](CO)C(=O)N[C@@H](CCCCNC(=O)CC[C@H](NC(=O)CNC(=O)CC[C@H](NC(=O)CCCCCCCCCCCCCCCCC(=O)O)C(=O)O)C(=O)O)C(N)=O)NC(=O)[C@H](CCCNC(=N)N)NC(=O)[C@H](Cc2c[nH]cn2)NC(=O)[C@H](CCC(=O)O)NC(=O)CNC(=O)[C@H](Cc2c[nH]c3ccccc23)NC(=O)[C@H](CC(=O)O)NC(=O)[C@H](CCC(N)=O)NC(=O)[C@H](Cc2cn(C)c3ccccc23)NC1=O) [Compound 139] | < 100 nM | 7.4 nM
4 | Ac-SEFCI[Trp(1-Me)]QDWGEHRC[Sar]EGE-{AEEA-AEEA-K(γGlu-Gly-γGlu-19-carboxy-nonadecanoyl)-NH2} (disulfide 4-14, also called comp 128) [Compound 128] | < 100 nM | 6.5 nM
5 | Ac-SEFCI[Trp(1-Me)]QDWGEHRCTEGEGGGK([γGlu-Gly-γGlu-C18 diacid])-NH2 (disulfide 4-14; SMILES CC[C@H](C)[C@@H]1NC(=O)[C@@H](NC(=O)[C@H](Cc2ccccc2)NC(=O)[C@H](CCC(=O)O)NC(=O)[C@H](CO)NC(C)=O)CSSC[C@@H](C(=O)N[C@H](C(=O)N[C@@H](CCC(=O)O)C(=O)NCC(=O)N[C@@H](CCC(=O)O)C(=O)NCC(=O)NCC(=O)NCC(=O)N[C@@H](CCCCNC(=O)CC[C@H](NC(=O)CNC(=O)CC[C@H](NC(=O)CCCCCCCCCCCCCCCCC(=O)O)C(=O)O)C(=O)O)C(N)=O)[C@@H](C)O)NC(=O)[C@H](CCCNC(=N)N)NC(=O)[C@H](Cc2c[nH]cn2)NC(=O)[C@H](CCC(=O)O)NC(=O)CNC(=O)[C@H](Cc2c[nH]c3ccccc23)NC(=O)[C@H](CC(=O)O)NC(=O)[C@H](CCC(N)=O)NC(=O)[C@H](Cc2cn(C)c3ccccc23)NC1=O) [Compound 130] | < 100 nM | 4.4 nM
